The values below come from PMC11162425.

The assay addresses Lcl C-terminal domain (Lcl-CTD, residues 252 to 401) (Legionella pneumophila strain 130b). Description: SEC-MALS.

Turning to “Lcl C-terminal domain (Lcl-CTD, residues 252 to 401) (domain or fragment)”, the stoichiometry N amounted to 3.
